Experiment [1] has as its target α-2,6-sialic acid variant (ST6) of the mAb. The experiment can be described thus: native MS.
Experiment [2] addresses hyper-galactosylated (G2 F) variant of the mAb. The experiment can be described thus: native MS.

In turn, “recombinant Human Fc gamma RIIIa/CD16a (V176) protein (from UniProt P08637 17-208) (receptor)” had a fold change of binding affinity against ST3 in experiment [1] of 1.72 fold. In addition, the fold change of binding affinity against G0 F in experiment [2] is 1.5 fold.

Values taken from PMC7153833.
